The supplement of paper PMC9942255

System: Bacillus subtilis DB104 (SP-AmyQ fusion secretion)
Experiment: AmyQ secretion efficiency, weighted average sort bin (1 = best secretion, 10 = worst) (bin number (weighted average, 1-10)); higher = lower secretion efficiency
Procedure, shortened: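 B. subtilis DB104 library expressing mature AmyQ fused to designed signal peptides (amyE-integrated) was encapsulated at about 0.3 cells per ~65 nL alginate bead with fluorescein-starch, grown about 13 h at room temperature and nile red stained. Occupied beads were sorted by large-particle flow cytometry into 10 equally populated bins by green/red fluorescence ratio, and each bin's amplicons were Illumina-sequenced. Secretion score is the read-frequency-weighted average bin number, normalised to beads per bin, excluding low-abundance sequences.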

In the case of MRIFKKAVFVIMISFLIATVNVNTAHAEDD, the AmyQ secretion efficiency is reported as 3.86.
Sequence MRIFKKAVFVIMISFLIATVNVNTAHAKKR has an AmyQ secretion efficiency of 2.09.
Work on MRIFKKAVFVIMISFLIATVNVNTAHGAID yielded an AmyQ secretion efficiency of 5.43.
For MRIFKKAVFVIMISFLIATVNVNTAHIAID, the AmyQ secretion efficiency was 6.89.
MRIFKKAVFVIMISFLIATVNVNTCHAAID showed an AmyQ secretion efficiency of 3.94.
In the case of MRIFKKTYSQQGQTFLIATVNVNTAHAAID, the AmyQ secretion efficiency is reported as 8.8.
MRIKQCVICLSLLVFGTTAAHAEET was tested, and the AmyQ secretion efficiency was 2.98.
Work on MRKAVFVIMISFLIATVNVNTAHAAID yielded an AmyQ secretion efficiency of 3.36.
MRKAVLLSLIMLIAGFLISFSFQM was tested, and the AmyQ secretion efficiency was 7.21.
MRKFLKSNFRFLLAAALGISLLASSNFIKASND showed an AmyQ secretion efficiency of 4.13.
With MRKFLLAAALGISLLASSNFIKASND the AmyQ secretion efficiency was 4.88.
MRKIIGWILLLCIIPLFAFTVIASGKEV was tested, and the AmyQ secretion efficiency was 7.63.
For MRKILALFVLSLGLLSFMVTPVSAASK, the AmyQ secretion efficiency was 1.58.
For MRKILLSSALSLGMLVSAAPVLATSS, the AmyQ secretion efficiency was 1.66.
For MRKKCKVCLWILVLLLSCLSGKSAYAATS, the AmyQ secretion efficiency was 2.26.
In the case of MRKKCSKCKWSTTSLLSCLSGKSAYAATS, the AmyQ secretion efficiency is reported as 7.94.
For MRKKCSSMSFTSVCLWILVLLLSCLSGKSAYAATS, the AmyQ secretion efficiency was 3.
MRKKCSTCQWRLVLLLSCLSGKSAYAATS was tested, and the AmyQ secretion efficiency was 5.76.
For MRKKCSTCRWILVLLLSCLSGKSAYAATS, the AmyQ secretion efficiency was 5.49.
MRKKCSVCKKRRKRLLSCLSGKSAYAATS showed an AmyQ secretion efficiency of 7.64.
MRKKCSVCKRILVLLLSCLSGKSAYAATS gave an AmyQ secretion efficiency of 7.44.
MRKKCSVCLWILVLLLSCDSGKSAYAATS showed an AmyQ secretion efficiency of 3.15.
Work on MRKKCSVCLWILVLLLSCKKRKKRAYAATS yielded an AmyQ secretion efficiency of 6.88.
Sequence MRKKCSVCLWILVLLLSCKRGKSAYAATS has an AmyQ secretion efficiency of 6.83.
MRKKCSVCRRKKVLLLSCLSGKSAYAATS gave an AmyQ secretion efficiency of 7.48.
Work on MRKKHKTISLLIIFLLASAVLAKPIEAHTV yielded an AmyQ secretion efficiency of 2.55.
In the case of MRKKHQTISLLIIFLLASAVLAKPIEAHTV, the AmyQ secretion efficiency is reported as 2.69.
MRKKIKVLTMCFLGLILFVPTALADNS gave an AmyQ secretion efficiency of 1.88.
In the case of MRKKKLWISLLFALTLIFTMAFSNMSAQAAGK, the AmyQ secretion efficiency is reported as 2.97.
With MRKKKRHSRLIVLLFFSFFGVQPIHAKKQ the AmyQ secretion efficiency was 7.01.
MRKKKRKLLLATSALTFSLSLVLPLDGHAKAQEV showed an AmyQ secretion efficiency of 2.13.
MRKKKRRVLLLLVTGLFMSLFAVTATASAQTG was tested, and the AmyQ secretion efficiency was 1.06.
With MRKKKWMVGLLAGCLAAGGFSYNAFATEN the AmyQ secretion efficiency was 3.58.
Sequence MRKKKWRVGLLAGCLAAGGFSYNAFATEN has an AmyQ secretion efficiency of 5.68.
For MRKKLKWLSFKRRRKRLLFLFKYQFSNNDS, the AmyQ secretion efficiency was 8.72.
MRKKLKWLSFLLGFIILLFLFDEEEDDFSNNDS showed an AmyQ secretion efficiency of 5.38.
MRKKLKWLSFLLGFIILLFLFFFIALIVLAKYQFSNNDS showed an AmyQ secretion efficiency of 6.41.
For MRKKLKWLSFLLGFIILLFLFKKKFSNNDS, the AmyQ secretion efficiency was 7.77.
Work on MRKKLKWLSFLLGFIILLFLFKKRKKRFSNNDS yielded an AmyQ secretion efficiency of 7.3.
In the case of MRKKLKWLSFLLGFIILLFLFKYQASNNDS, the AmyQ secretion efficiency is reported as 7.34.
For MRKKLKWLSFLLGFIILLFLFKYQFSFNDS, the AmyQ secretion efficiency was 6.3.
MRKKLKWLSFLLGFIILLFLFKYQFSNNKR showed an AmyQ secretion efficiency of 5.8.
Work on MRKKLKWLSFLLGFIILLFLFKYQFSPNDS yielded an AmyQ secretion efficiency of 6.63.
In the case of MRKKLKWLSFLLGFIILLFLFKYQFSQNDS, the AmyQ secretion efficiency is reported as 8.41.
MRKKLKWLSFLLGFIILLFLFKYQFSSNDS gave an AmyQ secretion efficiency of 5.44.
Work on MRKKLKWLSFLLGFIILLFLFKYQGSNNDS yielded an AmyQ secretion efficiency of 5.93.
With MRKKLKWLSFLLGFIILLFLFKYQPSNNDS the AmyQ secretion efficiency was 7.17.
MRKKLKWLSFLLGFIILLFLFKYQQSNNDS gave an AmyQ secretion efficiency of 6.25.
With MRKKLKWLSFLLGFIILLFLFKYQRSNNDS the AmyQ secretion efficiency was 7.7.
For MRKKLKWLSFLLGFIILLFLFKYQSSNNDS, the AmyQ secretion efficiency was 6.36.
MRKKLKWLSFLLGFIILLFLFTFGFSNNDS showed an AmyQ secretion efficiency of 5.5.
Work on MRKKLKWLSFLLGFIILLFLFTLTILKYQFSNNDS yielded an AmyQ secretion efficiency of 7.28.
In the case of MRKKLKWLSFRRRRIILLFLFKYQFSNNDS, the AmyQ secretion efficiency is reported as 7.16.
MRKKLKWLSTGTGGTYTQFLFKYQFSNNDS gave an AmyQ secretion efficiency of 7.11.
Work on MRKKLKWLSTLLGFIILLFLFKYQFSNNDS yielded an AmyQ secretion efficiency of 5.35.
MRKKRAVLLSLIMLIAGFLISFSFQM showed an AmyQ secretion efficiency of 7.34.
Sequence MRKKRGYRCGMAASLTLGSLLPAGYASAKED has an AmyQ secretion efficiency of 6.63.
In the case of MRKKRLLAGALTATVLFGTCAVDVPGIISPKTAEAASQ, the AmyQ secretion efficiency is reported as 1.23.
For MRKKRLLTIYIMLLGLIAWFPGAAQAEEK, the AmyQ secretion efficiency was 3.47.
With MRKKRMIMMVITCVMAASLTLGSLLPAGYASAKED the AmyQ secretion efficiency was 3.07.
In the case of MRKKRNVITCVMAASLTLGSLLPAGYASAKED, the AmyQ secretion efficiency is reported as 3.03.
MRKKRQVCLWILVLLLSCLSGKSAYAATS showed an AmyQ secretion efficiency of 2.64.
MRKKRRRSLITLGLASVIGTSSFLIPFTSKTASAETL gave an AmyQ secretion efficiency of 1.75.
In the case of MRKKRRRVITCVMAASLTLGSLLPAGYATAKED, the AmyQ secretion efficiency is reported as 3.9.
Work on MRKKRTIFAFLTGLMMFGTITAASASPD yielded an AmyQ secretion efficiency of 4.56.
MRKKRTSNFNMIVITCVMAASLTLGSLLPAGYATAKED showed an AmyQ secretion efficiency of 3.08.
MRKKRTVITCVMAASLTLGSLLPAGYATAKED showed an AmyQ secretion efficiency of 6.07.
With MRKKRVILAAFILVGSTLGAFSFSSDASAKHV the AmyQ secretion efficiency was 2.62.
In the case of MRKKRVITCVMAASLTLGPAGYASAKED, the AmyQ secretion efficiency is reported as 3.6.
With MRKKRVITCVMAASLTLGPAGYATAKED the AmyQ secretion efficiency was 2.6.
With MRKKRVITCVMAASLTLGSLLAAAIASAKED the AmyQ secretion efficiency was 5.2.
With MRKKRVITCVMAASLTLGSLLAAAIATAKED the AmyQ secretion efficiency was 3.82.
With MRKKRVITCVMAASLTLGSLLPAGYASAADD the AmyQ secretion efficiency was 5.09.
MRKKRVITCVMAASLTLGSLLPAGYASAAPS showed an AmyQ secretion efficiency of 2.5.
For MRKKRVITCVMAASLTLGSLLPAGYASAASD, the AmyQ secretion efficiency was 1.13.
For MRKKRVITCVMAASLTLGSLLPAGYASFKED, the AmyQ secretion efficiency was 3.82.
MRKKRVITCVMAASLTLGSLLPAGYASGKED was tested, and the AmyQ secretion efficiency was 3.86.
With MRKKRVITCVMAASLTLGSLLPAGYASTKED the AmyQ secretion efficiency was 2.82.
Work on MRKKRVITCVMAASLTLGSLLPAGYATAAPR yielded an AmyQ secretion efficiency of 1.69.
MRKKRVITCVMAASLTLGSLLPAGYATAATP was tested, and the AmyQ secretion efficiency was 2.04.
In the case of MRKKRVITCVMAASLTLGSLLPAGYATADDE, the AmyQ secretion efficiency is reported as 4.08.
Work on MRKKRVITCVMAASLTLGSLLPAGYATAKKR yielded an AmyQ secretion efficiency of 2.88.
With MRKKRVITCVMAASLTLGSLLPAGYCSAKED the AmyQ secretion efficiency was 3.36.
MRKKRVITCVMAASLTLGSLLPAGYCTAKED showed an AmyQ secretion efficiency of 3.9.
In the case of MRKKRVITCVMAASLTLGSLLPAGYLSAKED, the AmyQ secretion efficiency is reported as 4.34.
For MRKKRVITCVMAASLTLGSLLPAGYMSAKED, the AmyQ secretion efficiency was 2.67.
MRKKRVITCVMAASLTLGSLLPAGYSSAKED gave an AmyQ secretion efficiency of 3.75.
For MRKKRVITCVMAASLTLGSLLPAGYVSAKED, the AmyQ secretion efficiency was 3.76.
MRKKRVITCVMAASLTLGSLLPAGYVTAKED gave an AmyQ secretion efficiency of 2.51.
MRKKRVITCVMAASLTLGSLLRKRKKRASAKED gave an AmyQ secretion efficiency of 6.48.
Work on MRKKRVITCVMAASLTLGSLLSPAGYASAKED yielded an AmyQ secretion efficiency of 3.22.
For MRKKRVITCVMAASLTLGSLLTAVTASAKED, the AmyQ secretion efficiency was 3.16.
Sequence MRKKRVITCVMAASPAGYASAKED has an AmyQ secretion efficiency of 7.41.
In the case of MRKKRVITCVMAASPAGYATAKED, the AmyQ secretion efficiency is reported as 7.65.
